In test [1] the target is SARS-CoV-2 Spike (S) trimer (SARS-CoV-2, UniProt P0DTC2 16-1213). The test is described as follows: ELISA, S trimer coated, antibody at 1:50 dilution. (An ELISA detects its analyte on a solid surface through an enzyme-linked reagent.)
Test [2] has as its target T1, SARS-CoV-2 Spike (S) trimer (SARS-CoV-2, UniProt P0DTC2 16-1213). The test is described as follows: ELISA, S trimer coated, antibody at 1:50 dilution. The source holds these as a separate data set.
The target of test [3] is SARS-CoV-2 Envelope (E) protein (SARS-CoV-2, UniProt P0DTC4 1-75). Kind of test: ELISA, Envelope.
Test [4] concerns the target SARS-CoV-2 Spike (S) trimer (SARS-CoV-2, UniProt P0DTC2 16-1213). The test is described as follows: ELISA on coated S trimer, 1:50.
The target of another test is SARS-CoV-2 S2 protein (SARS-CoV-2, UniProt P0DTC2 686-1213).
In test [5] the target is SARS-CoV-2 spike S2 protein (SARS-CoV-2, UniProt P0DTC2 686-1213).
Test [6] addresses T1, SARS-CoV-2 Spike (S) trimer.
The target in test [7] is SARS-CoV-2 Nucleocapsid (N) protein (SARS-CoV-2, UniProt P0DTC9 1-419).
For test [8] the target is unchanged. The source holds these as a separate data set.
Test [9] concerns the target SARS-CoV-2 spike S2 protein (SARS-CoV-2, UniProt P0DTC2 686-1213). This is another data set of the same source.

Substitutions are numbered along the chain they refer to.

B1: AB-009629 (antibody, V domains shown)
VH: QVQLQQWGAGLLKPSETLSLTCAVYGGSFSGYYWSWIRQPPGKGLEWIGEINHSGSTNYNPSLKSRVTISVDTSKNQFSLKLSSVTAADTAVYFCARGTGIAVAGVLVNFYYCYYMDVWGKGTTVTVSS
VL: SSELTQDPAVSVALGQTVRITCQGDSLRSYYASWYQQKPGQAPVLVIYGKNNRPSGIPDRFSGSSSGNTASLTITGAQAEDEADYYCNSRDSSGNHLVFGGGTKLTVL
In the case of B1, the “Optical Density (OD; 450 nm)” value in test [1] worked out at 0.114 OD 450 nm.

B2: AB-009271 (antibody, V domains shown)
VH: EVQLVESGGGLIQPGGSLRLSCAASGFIVSSNYMSWVRQAPGKGLEWVSVIYSGGSTYYADSVKGRFTISRDNSKNTLYLQMNSLRAEDTAVYYCARDYGDFYFDYWGQGTLVTVSS
VL: EIVMTQSPATLSVSPGERATLSCRASQSVSSNLAWYQQKPGQAPRLLIYGASTRATGIPARFSGSGSGTEFTLTISSLQSEDFAVYYCQQYYNWPRTFGQGTKVEIK
In the case of B2, in test [2], the “Optical Density (OD; 450 nm)” value stood at 2.94 OD 450 nm.

B3: AB-009613 (antibody, V domains shown)
VH: B2 VH with I28T
VL: not shown
For the molecule B3, the “Optical Density (OD; 450 nm)” value in test [2] is 2.47 OD 450 nm.

B4: AB-009357 (antibody, V domains shown)
VH: QLQLQESGPGLVKPSETLSLTCTVSGGSISSSSYYWGWIRQPPGKGLEWIGSIYYSGSTYYNPSLKSRVTISVDTSKNQFSLKLSSVTAADTAVYYCARHPLSSITIFGVVKREYYFDYWGQGTLVTVSS
VL: DIQMTQSPSSVSASVGDRVTITCRASQGISSWLAWYQQKPGKAPKLLIYAASSLQSGVPSRFSGSGSGTDFTLTISSLQPEDFATYYCQQANSFPLLFGGGTKVEIK
Turning to B4, the figures for the “OD 450 nm” value in [3] and in test [4] were 0.221 OD and 2.77 OD, respectively.

B5: AB-009335 (antibody, V domains shown)
VH: QVQLQESGPGLVKPSETLSLTCTVSGGSISSHYWSWIRQPPGKGLEWIGYIYYSGSTNYNPSLKSRVTISVDTSKNQFSLKLSSVTAADTAVYYCARVRREWLAAYFYYGMDVWGQGTTVTVSS
VL: B4 VL with V11L, S31N, W32Y, A43V, S53T, F83V, Q90K, A91Y, F94A, L97T
With B5, the “OD 450 nm” value is 0.4 OD in test [3] and 1.03 OD in test [4].

B6: AB-009627 (antibody, V domains shown)
VH: QVQLQQWGAGLLKPSETLSLTCAVYGGSFSGYYWSWIRQPPGKGLEWIGEINHSGSTNYNPSLKSRVTISVDTSKNQFSLKLSSVTAADTAVFYCARGGYSSSWYGEKYWFDPWGQGTLVTVSS
VL: QSALTQPRSVSGSPGQSVTISCTGTSSDVGGYNYVSWYQQHPGKAPKLMIYDVSKRPSGVPDRFSGSKSGNTASLTISGLQAEDEADYYCCSYAGSPYVFGTGTKVTVL
As a reminder, the Kd is the free concentration of one partner at which half of the binding sites on the other are occupied at equilibrium, for simple one-to-one binding. Broadly, the koff is the rate constant with which the complex falls apart. In general, kon refers to the rate constant with which the complex forms. Read a low kon as slow association. In the test with SARS-CoV-2 S2 protein, B6 came in with a Kd of 0.246 nM, a koff of 2.85e-07 s⁻¹ and an association rate constant (kon) of 1160 M⁻¹ s⁻¹.

B7: AB-009325 (antibody, V domains shown)
VH: QVQLVESGGGVVQPGRSLRLSCAASGFTFNNYGMHWVRQAPGKGLEWVALISYEGSLKYYGDSVRGRFTVSRDNSRNTLYLQMNSLRVDDTAVYYCAKAGGIFAIHYYGMNVWGQGTTVTVSS
VL: QSVLTQPPSVSAAPGQKVTISCSGSSSNIGKNYVSWYRQFPGTAPKLLIYDNNKRPSGIPDRFSGSKSDTSATLGITGLQTGDEADYYCVTWDSSLSAGVFGGGTKLTVL
Regarding B7, in test [5], the Kd turned out to be 0.0467 nM, the koff stood at 2.77e-07 s⁻¹ and the kon was determined as 5930 M⁻¹ s⁻¹. In test [3], the “OD 450 nm” value came to 0.32 OD. Also, in test [4], the “OD 450 nm” value worked out at 1.39 OD.

B8: AB-010020 (antibody, V domains shown)
VH: QMQLVQSGPEVKKPGTSVKVSCKASGFTFTSSAVQWVRQARGQRLEWIGWIVVGSGNTNYAQKFQERVTITRDMSTSTAYMELSSLRSEDTAVYYCAAPACSSTSCYDGFDIWGQGTMVTVSS
VL: not shown
By EC50 is commonly meant the concentration giving half of the maximal effect. High values mean weaker potency, low ones greater potency. Molecule B8 displayed a concentration giving a half-maximal response (EC50) in [6] of 0.15 nM.

B9: AB-010021 (antibody, V domains shown)
VH: B8 VH with P99V, A100Y, S103G, T104G, Y107L, G109A
VL: not shown
Take B9: a half-maximal effect in test [6] (EC50) was put at 0.23 nM. Against the preceding molecule, the EC50 is about 1.5-fold higher.

B10: AB-009190 (antibody, V domains shown)
VH: QVQLVESGGGVVQPGRSLRLSCAASGFTFSSYAMHWVRQAPGKGLEWVAVISYDGSNKYYADSVKGRFTISRDNSKNTLYLQMNSLRAEDTAVYYCARLNGDAYYYYGMDVWGQGTTVTVSS
VL: not shown
In test [7], B10 had a Kd of 54.1 nM, an off-rate (koff) of 0.000947 s⁻¹ and an on-rate (kon) of 17500 M⁻¹ s⁻¹. Besides, in test [3], the “OD 450 nm” value is 0.469 OD.

B11: AB-009734 (antibody, V domains shown)
VH: QVHLVQSGAEVKTPGASVRVSCKASGYTFTSHYMHWVRQAPGQGLEWMGLINPSGSGTAYPQHFQGRVTMTRDTSTTTDYMDLSSLRSEDTAMYFCARMERSGAFDLWGQGTMVTVSS
VL: EIVLTQSPGTLSLSPGERATLSCRASQTISSRYLAWYYQKPGQAPRLLIQGSSIRATGIPDRFSGSGSGTDFTLTISRLEPEDFAVYYCQHYGSSPPMYTFGQGTKLEIK
For B11, in the test with SARS-CoV-2 S2 protein, binding was characterised by a dissociation constant (Kd) of 12.4 nM, the off-rate (koff) came to 0.000103 s⁻¹ and the kon stood at 8280 M⁻¹ s⁻¹. In test [8], this molecule displayed a Kd of 22.2 nM, a koff of 0.000979 s⁻¹ and a kon of 44000 M⁻¹ s⁻¹.

B12: AB-009610 (antibody, V domains shown)
VH: QVQLVQSGAEVKKPGSSVKVSCKASGGTFSNYAISWVRQAPGQGLEWMGRIIPILGIANYAQKFQGRVTITADKSTSTAYMELSSLRSEDTAVYYCATTPYYYDSSGYYLDYWGQGTLVTVSS
VL: not shown
B12: the “Optical Density (OD; 450 nm)” value in test [2] is 2.02 OD 450 nm.

B13: AB-009358 (antibody, V domains shown)
VH: QVHLVQSGAEVKKPGASVKISCKASGYTFTSYYVHWVRQAPGQGLEWMGIIKPSGAGTIYAQKFQGRVTMTRDTSTSTVYMELSSLISEDTAVYYCARGGGVTDRDYWGQGTLVTVSS
VL: QSALTQEASVSATVGQKVTLSCTGNTNNIGGYAVGWHQQISHGAPKTVMFGNSLPSGIPDRFSGSKSGTTASLIISGLQPEDEADYYCSTWDSSLGAVLFGGGTKLTVL
Consider B13, for which, in test [9], binding was characterised by a dissociation constant (Kd) of 478 nM, the koff is 0.00176 s⁻¹ and the kon worked out at 3690 M⁻¹ s⁻¹.
